For one molecule, response (Cdc53/Amido Black) results are on record in paper PMC4675558.

In this test the target is T1, Cdc53(267-851)/GST-Rbx1 complex expressed in bacteria, Q08273.
T1 chain: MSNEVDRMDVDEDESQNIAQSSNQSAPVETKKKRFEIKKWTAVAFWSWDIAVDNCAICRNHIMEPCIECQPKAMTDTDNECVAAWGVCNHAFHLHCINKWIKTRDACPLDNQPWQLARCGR
Put plainly: in vitro binding assay (MBP pull-down on amylose beads, Western blot quantification). To be noted: chain shown with the change, bacterial lysate expressing Cdc53(267-851)/Rbx1, normalized to Amido black signal of MBP tagged protein, read off a plot. On the technique in general: In western blotting, separated proteins are transferred to a membrane and probed.

B1: (MBP)-Met30(1-186), P39014 M178E; I179E (protein)
chain: MRRERQRMMSFEDKDKDDLDNSNSNNSSEMTDTAMMPPLKRLLITGSSDDLAQGSSGKKKMTMATRSPSSSPDLATNDSGTRVQPLPEYNFTKFCYRHNPDIQFSPTHTACYKQDLKRTQEINANIAKLPLQEQSDIHHIISKYSNSNDKIRKLILDGILSTSCFPQLSYISSLVTHEEKIDFISI
With B1, the response (Cdc53/Amido Black) (Exp 1, parent: est. 3.1) is 0.15; the response (Cdc53/Amido Black) (Exp 2, parent: est. 7.3) was determined as 2.9; the response (Cdc53/Amido Black) (Exp 3, parent: est. 4.6) amounted to 0.45.
